This is an account of results in the nanobody polyreactivity screen of Harvey et al. (2022).

This data set is described as follows: yeast display, Sf9 membrane polyspecificity reagent, FACS + sequencing; frameworks hold sequencing errors. Put shortly: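 Using colony PCR, genes from sorted yeast display clones were amplified, then sequenced on MiSeq at 2 × 250 and filtered by CDR length. The clones had been stained with 10% biotinylated, detergent-solubilized Sf9 membrane reagent for 1 hour at 4 °C and sorted by FACS into low and high (top ~1%) gates on anti-HA and streptavidin fluorescence. Polyreactivity labels come from the gate of origin.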
Turning to “QVQLVESGGGLVQAGGSLRLSCAASGSTFRANAMGWYRQAPGKESELVADIRFSDGSTYYADSVKGRFTISRDNAKNTVYLQMNSLKPEDTAVYYCAARPSGRGYYLLGYWGQGTQVTVSS”, the “polyreactivity (PSR sort gate)” value was “low polyreactivity”.
In the case of “QVQLVESGGGLVQAGGSLRLSCAASGSTFRANVMGWYRQAPGKEMELVAAITSGGGSTYYADSVKGRFTISRDNAKNTVYLQMNSLKPEDTAVYYCATRPIQYRRGYDYWGQGTQVTVSS”, the “polyreactivity (PSR sort gate)” value is “high polyreactivity”.
In the case of “QVQLVESGGGLVQAGGSLRLSCAASGSTFRAYAMGWYRQAPGKEREFVASISWSGGRTYYADSVKGRFTISRDNAKNTVYLQMNSLKPEDTAVYYCAVDLSTHDYDYWGQGTQVTVSS”, the “polyreactivity (PSR sort gate)” value is “low polyreactivity”.
As for “QVQLVESGGGLVQAGGSLRLSCAASGSTFRAYAMGWYRQAPGKERELVAAISRSGGSTYYADSVKGRFTISRDNAKNTVYLQMNSLKPEDTAVYYCNAAYKNYQYRPPNIDGQGDYWGQGTQVTVSS”, the entry is “high polyreactivity”; as for “QVQLVESGGGLVQAGGSLRLSCAASGSTFRAYAMRWYRQAPGKETELVAAISSSGGSTYYADSVKGRFTISRDNAKKTVYLQMNSLKPEDTAVYYCAARGWWSRYGYWGQGTQVTVSS”, “high polyreactivity”.
For “QVQLVESGGGLVQAGGSLRLSCAASGSTFRCYAMGWYRQAPGKERELVAAISRSGGSTYYADSVKGRFTISRDNAKNTVYLQMNSLKPEDTAVYYCNARSSKRSSRGYDYWGQGTQVTVSS”, the “polyreactivity (PSR sort gate)” value is “high polyreactivity”.
The same measure for “QVQLVESGGGLVQAGGSLRLSCAASGSTFRDNSMGWYRQAPGKERELVASITKRGTSTYYADSVKGRFTISRDNAKNNVYLHMNSLKPEETSVYYCAVRRYGKTAGYDYWGQGTQVTVSS”: “low polyreactivity”; for “QVQLVESGGGLVQAGGSLRLSCAASGSTFREYAMGWYRQAPGKERELVAAISSGDSTNYADSVKGRFTISRDNAKNTVYLQMNSLKPEDTAVYYCAADAPGAAAVQNDYWGQGTQVTVSS”: “low polyreactivity”.
Regarding “QVQLVESGGGLVQAGGSLRLSCAASGSTFRFNAMGWYRQAPGKERELVAAITGIGGITYYADSVKGRFTISRDNAKNTVYLQMNSLKPEDTAVYYCNAVAARYSVRNGYSTHYDYWGQGTQVTVSS”, the “polyreactivity (PSR sort gate)” value was “high polyreactivity”.
As for “QVQLVESGGGLVQAGGSLRLSCAASGSTFRFNTMGWYRHAPGKDRELVAAITSGGSTYYADSVKGLFTISRDNAKNTVYLQMNSLKPEDTAVYYCAATWYIRGQCYYYWGQGTQVTVSS”, the entry is “high polyreactivity”.
The same measure for “QVQLVESGGGLVQAGGSLRLSCAASGSTFRFYAMGWYRPAPGKERELVAVIRSTGSTYYADSVKGRFTISRDNAKNTVYLQMNSLKPEDTAVYYCAAQNAWWSNGRSYDYWGQGTQVTVSS”: “low polyreactivity”; for “QVQLVESGGGLVQAGGSLRLSCAASGSTFRFYAMGWYRQAPGKERELVAAISKSGGITYYADSVKGRFTISRAHAKNTVYLQMNSLKPEDTSVSYCATVGLLSNFYSRFNYWGQGTPVTVSS”: “high polyreactivity”; for “QVQLVESGGGLVQAGGSLRLSCAASGSTFRFYAMGWYRQAPGKERELVAAITRSGGGTTYYADSVKGRFTISRDNAKNTVYLQMNSLKPEDTAVYYCAAYLSSLGRKYYYWGQGTQVTVSS”: “high polyreactivity”.
Take “QVQLVESGGGLVQAGGSLRLSCAASGSTFRGNDMGWYRQAPGKERELVASIDWSGGSTYYADSVKGRFTISRDNAKNTVYLQMNSLKPEDTAVYYCAADTSYWYDYYIDYVGYYYWGQGTQVTVSS”: the “polyreactivity (PSR sort gate)” value is given as “high polyreactivity”.
“QVQLVESGGGLVQAGGSLRLSCAASGSTFRGNTMGWYRQAPGKERELVAAISRRGGGTYYADSVKGRFTISRDNAKNTVYLQMNSLKPEDTAVYYCNKRARHTGDFVWGHGYWGQGTQVTVSS”: the “polyreactivity (PSR sort gate)” value is “low polyreactivity”.
For the sequence “QVQLVESGGGLVQAGGSLRLSCAASGSTFRGYAMGWYRLAPGKEREFVASISLSGGSTYYADSVKGRFTISRDNAKNTVDSQMNSRKPEDTAVYDGAARARGYGWRGDYWGQGTHVTVSS”, the “polyreactivity (PSR sort gate)” value is recorded as “low polyreactivity”.
Consider “QVQLVESGGGLVQAGGSLRLSCAASGSTFRGYAMGWYRQAPGKERDLVAAMSSNGDRTFYADSVKGRFTISRDNAKNTVYLQMNSLKPEDTAVYYCNAVYRGSWQLYGYWGLGTQVTVSS”, for which the “polyreactivity (PSR sort gate)” value is “high polyreactivity”.
Turning to “QVQLVESGGGLVQAGGSLRLSCAASGSTFRHNAMGWYRDAPGTERELVATIRTSGGTTYYADSVKGRFTISRDNAKNTVYLQMNSLKPEDTAVYYCAAKYSLLRQYNRLDYWGQGTQVTVSS”, the “polyreactivity (PSR sort gate)” value was “low polyreactivity”.
Take “QVQLVESGGGLVQAGGSLRLSCAASGSTFRHNAMGWYRQAPGKERELVATIRTSGGTTYYADSVKGRFTISRDNAKNTVYLQMNSLKQEDTAVYYCAAVSYLFLYQGYPIAYPMYYWGQGSQVTVSS”: the “polyreactivity (PSR sort gate)” value is given as “low polyreactivity”.
In the case of “QVQLVESGGGLVQAGGSLRLSCAASGSTFRHYAMGWYRQAPGKESELVAAISSTGGSTHNADSVKGRFTISRDNAKNTVFLQLHSLKPEDTAVDYCAARRLYWGQGTQVTVSS”, the “polyreactivity (PSR sort gate)” value is given as “high polyreactivity”.
For “QVQLVESGGGLVQAGGSLRLSCAASGSTFRINAMGWYRQAPGKERELVAAITSGGSTKYADSVKGRFTISRDNAKNTVYLQMNSLKPEDTAVYYCNKQGYPYRYFAWYPGYNYWGQGTQVTVSS”, the “polyreactivity (PSR sort gate)” value is given as “low polyreactivity”.
Take “QVQLVESGGGLVQAGGSLRLSCAASGSTFRIYAKGWYRQAPGKERELVAAITRGARTNYADSVKGRFTISRDNAKNTVYLQMNSLKPEDTAVYYCAADGWRWYQHNGFDYWVQGTQVTVSS”: the “polyreactivity (PSR sort gate)” value is on record as “high polyreactivity”.
The same measure for “QVQLVESGGGLVQAGGSLRLSCAASGSTFRKYAMGWYRQAPGKEREFVAAITWSTGTTYYADSVKGRFTISRDNAKNTVYLQMNSLKPEDTAVYYCNAAFWAPQAPCYYYWGQGTQVTVSS”: “low polyreactivity”; for “QVQLVESGGGLVQAGGSLRLSCAASGSTFRLNAMGRYRQAPGKERELVAAISRSTGTTHYADSVKGRFTISRDNAKNTVYLQMKSLKPEDTAVYYCATDRAKWHKNGDLGYWGQGTQVTVSS”: “low polyreactivity”.
In the case of “QVQLVESGGGLVQAGGSLRLSCAASGSTFRLYAMGWYRQAPGKERELVAAIRSGGNTNYADSVKGRFTISRDNAKNTVYLQMNSLKPEDTAVYYCAATYGTGRRSKYGYWGQGTQVTVSS”, the “polyreactivity (PSR sort gate)” value was “high polyreactivity”.
Regarding “QVQLVESGGGLVQAGGSLRLSCAASGSTFRNNAMGWYRQAPGKETELVAAISFSSGRTYYADSVKGRFTISRDYAKNTVYLQMNSLKPEDTAVYYCAALQYRRRPYGAVERYDYWGQGTQVTVSS”, the “polyreactivity (PSR sort gate)” value was “high polyreactivity”.
Regarding “QVQLVESGGGLVQAGGSLRLSCAASGSTFRPNAMGWYRQAPGKERELVAAISRSGVSTYYADSVKGRFTISRDNAKNTVYLQMNSLKPEDTAVYYCARRYTGRPVLRESWGQGTQVTVSS”, the “polyreactivity (PSR sort gate)” value is given as “low polyreactivity”.
For “QVQLVESGGGLVQAGGSLRLSCAASGSTFRPYAMGWYRQAPGTERELVAAISWSGGRTYYADSVKGRFTISRDNAKNNVYLQMNSLKPEDTAVYYCTRAGRQPKNTYDYWGQGTQVTVSS”, the “polyreactivity (PSR sort gate)” value was “high polyreactivity”.
As for “QVQLVESGGGLVQAGGSLRLSCAASGSTFRQNALGWYRQAPGKERELVAAITYRVASTYYADSVKGRFTISRDNAKNTVYLQMNSLKPEDTAVYYCAAYKRRSNGRYWTYDYWGQGTQVTVSS”, the “polyreactivity (PSR sort gate)” value is “high polyreactivity”.
Take “QVQLVESGGGLVQAGGSLRLSCAASGSTFRRNAMGWYRQAPGKERELVAAISRTAGSTYYADSVKGRFTISRDNAKNTVYLQMNSLKPEDTAVYYCNRRYVSTSGELDYWGQGTQVTVSS”: the “polyreactivity (PSR sort gate)” value is reported as “high polyreactivity”.
As to “QVQLVESGGGLVQAGGSLRLSCAASGSTFRRNVMGWYRQAPGKEREFVAAISYRTGSTYYADSVKGRFTISRDNAKNTVYLQMNSLKPEDTAVYYCAASSQWVGYYYWGQGTQVTVSS”, the “polyreactivity (PSR sort gate)” value is reported as “high polyreactivity”.
With “QVQLVESGGGLVQAGGSLRLSCAASGSTFRRYAMGWSRQAPGKVRELVAAISRTGRTNYADSVKGRFTISRDNAKYTVYLQMNSLKPEDTAFDYCAAKSSTKQRKYYWGQGTQVTVSS”, the “polyreactivity (PSR sort gate)” value is “high polyreactivity”.
The same measure for “QVQLVESGGGLVQAGGSLRLSCAASGSTFRRYAMGWYRQAPGKERELVAAITSGGRTNYADSVKGRFTISRDNAKNTVYLQMNSLKPEDTAVYYCAARYIRGSYGMGYWGQGTQVTVSS”: “high polyreactivity”; for “QVQLVESGGGLVQAGGSLRLSCAASGSTFRRYAMGWYRQAPGKERELVAGITSGGDTYYADSVKGRFTISRDNAKNTVYLQMNSLKPEDTALYYCARVRYGRMDYWGQGTQVTVSS”: “high polyreactivity”.
On to “QVQLVESGGGLVQAGGSLRLSCAASGSTFRRYAMGWYRQAPGKERELVASISRSGGSTYYADSVKGRFTISRDNAKNTVYLQMNSLKPEDTAVYYCAKKPYKSAYDYSSAYDYWGQGTQVTVSS”, for which the “polyreactivity (PSR sort gate)” value is “high polyreactivity”.
On to “QVQLVESGGGLVQAGGSLRLSCAASGSTFRRYAMGWYRQAPGKERELVASITYRGGSTYYADSVKGRFTISRDNAKNTVYLQMNSLKPEDTAVYYCAKKGVYGPLNEYWGQGTQVTVSS”, for which the “polyreactivity (PSR sort gate)” value is “high polyreactivity”.
For “QVQLVESGGGLVQAGGSLRLSCAASGSTFRRYAMGWYRQAPVKERELVAAITRGGITYYADSVKGRFTISRDNAKNTVYLQMNSLKPEDTAVYYCAATTFGPYALYPRYYYWGQGTQVTVSS”, the “polyreactivity (PSR sort gate)” value is on record as “high polyreactivity”.
Take “QVQLVESGGGLVQAGGSLRLSCAASGSTFRSNAMGWYRQAPGKERELVAAIRYSGARTYYADSVKGRFTISRDNAKNTVYLQMNSLKPEDTAVYYCAATLYTRTYSWMDYWGQGTQVTVSS”: the “polyreactivity (PSR sort gate)” value is reported as “high polyreactivity”.
The same measure for “QVQLVESGGGLVQAGGSLRLSCAASGSTFRSNVMGWYRQAPGKAREFVAAITSSSATTYYADSVKGRFTISRDNAKNTVYLQMNSLKPEDTAVYYCAAGGRKAGPAGGQYYYWGQGTQVTVSS”: “low polyreactivity”.
As for “QVQLVESGGGLVQAGGSLRLSCAASGSTFRSYAMGWYRPAPGTERELVAAISYSGDSTYYADSVTGRFTISRDIAKNTVFLQMKRLKPVDTAVYYCAALRDWDIQGEPWKRYGYWGQGTQVTVSS”, the entry is “low polyreactivity”.
